Blank lines part the entries; values can stand above or below the substance they belong to.
What was measured:
[1] = system: T1, Factor VII (wild-type, single-chain zymogen)
T1 sequence: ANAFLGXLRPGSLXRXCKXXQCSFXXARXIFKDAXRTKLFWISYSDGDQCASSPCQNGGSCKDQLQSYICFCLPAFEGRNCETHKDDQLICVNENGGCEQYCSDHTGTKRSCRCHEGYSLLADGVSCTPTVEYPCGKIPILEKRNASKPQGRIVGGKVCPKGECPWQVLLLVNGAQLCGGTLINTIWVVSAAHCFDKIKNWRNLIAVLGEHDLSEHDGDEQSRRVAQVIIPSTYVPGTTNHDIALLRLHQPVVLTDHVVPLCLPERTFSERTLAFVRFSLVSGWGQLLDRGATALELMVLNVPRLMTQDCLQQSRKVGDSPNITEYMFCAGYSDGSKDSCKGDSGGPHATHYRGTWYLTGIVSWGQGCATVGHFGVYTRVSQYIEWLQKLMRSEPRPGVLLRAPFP

[2] = molecular target: FVII_XHC: FVII with FX activation peptide inserted in the end of FVII heavy chain; test: cell-based or functional assay

Substance: Factor IXa
activation of FVII (cleavage to two chains) on reducing SDS-PAGE; 250 nM FIXa for 20 h [1]: completely activated under all described conditions

time to complete activation, reducing SDS-PAGE, 80 nM FIXa [2]: 4 h
Substance: Factor IXa (from UniProt P00740 47-461) (enzyme)

Substance: Factor XIa
activation of FVII (cleavage to two chains) on reducing SDS-PAGE; 75 nM FXIa for 2.5 h [1]: completely activated under all described conditions

Substance: Factor Xa
activation of FVII (cleavage to two chains) on reducing SDS-PAGE; 100 nM FXa for 2 h [1]: completely activated under all described conditions
